Results as given in the supplement of paper PMC9170038.

System: K4 kissing-loop RNA reporter
Assay: apparent KD of K4 kissing-loop reporter; higher = weaker reporter binding
Details: Eterna round: R107
Protocol: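 RNA-MaP round R107: designed RNA switches with theophylline, tryptophan, arginine or FMN aptamers are transcribed on-chip within common flanks. They are titrated with a labelled K4 kissing-loop RNA reporter in RNA-MaP buffer (100 mM Tris pH 7.5, 80 mM KCl, 4 mM MgCl2), without ligand or with the indicated ligand. Median apparent KD per design.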

[1] = input ligand: theophylline 20 uM
[2] = input ligand: tryptophan 2.4 mM
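Also: bound reporter read as fluorescence of individual clusters on recovered sequencing chips by microscopy, with normalized cluster intensities fitted with a binding model.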

Sequence | apparent KD of K4 kissing-loop reporter (input ligand: FMN 200 uM) | apparent KD of K4 kissing-loop reporter (input ligand: arginine 13.2 mM) | apparent KD of K4 kissing-loop reporter (input ligand: none) | apparent KD of K4 kissing-loop reporter [1] | apparent KD of K4 kissing-loop reporter [2]
AUUUUUUUGUCAGGAUAUUAGUGUGGGUUUGGUUUGUUAGUGAUGUUGAUAUUUGUUUUAUGUAUUUAAGAAGGGAUUUAGCGGU [zzdxemullin] | 556 nM | 330 nM | 431 nM | 443 nM | 285 nM
CAAAUAAAUAUAAUUGAUAAGUGAUGUUGGCGAGGACCGGUACGGCCGCCACUCGAUAUCGGUCCAUUAACCGAGUGAUGUUUGG [Default title] | 102 nM | 58.9 nM | 81.1 nM | 67.4 nM | 83.7 nM
CAAUGAAUAUAAGAUGAUAUCAUAACAGAAGGAGCGAGUGAUAACUCAGGUAGGUCGCUGAAUUUAUCGAGUGAUGUUCGAUAAA [Same State Arginine A GF10] | 208 nM | 158 nM | 197 nM | 176 nM | 183 nM
CACCAUGAAUUCUCUAGGAGUGAUGUUUUUCGAGGACCGGUACGGCCGCCACUCGGACGAGGACCGUGGGAGCGGCGAAAAGACU [ghgmullin] | 206 nM | 225 nM | 329 nM | 152 nM | 309 nM
CACCCUAGUUCAGAUACCAGACUAGAGACAGUGAUGUUGUCACAUCCUAAAUUGGGUGUAGUCCCUUGGCAGCUGAGUAAUCUGC [Theo B/Ex/SS double] | 600 nM | 635 nM | 724 nM | 596 nM | 540 nM
CACGUUUACCAAGGAUAUGGUCUGCCGCGGAACCGUUCAAGUGAUGUUUGAUUCGAGUAUUAAUCUCCAGAAGGUGGUAGUACAG [theeternabot_exclusion_KL_FMN_B_6] | 247 nM | 353 nM | 417 nM | 476 nM | 342 nM
CAGAACUUGUAUAUAGGGUAUAUAAGAGAUACCAGUCAAAUUAAAGACCCUUGGCAGCUCAGGCGAGUGAUGUUCGCAGGCUAAC [Exclusion Theophylline A GF 17] | 112 nM | 111 nM | 113 nM | 133 nM | 91.1 nM
CAGCAUCAGGUUCAAACUGCAUGUACUGAUACCAGUCUUAAGAUCGACCCUUGGCAGCAGCUCCCGAGUGAUGUUCGUAGCGAGC [theeternabot_exclusion_KL_Theo_A_41] | 362 nM | 339 nM | 356 nM | 401 nM | 336 nM
CAGCGGAGUGAUGUUCUGCUUACUGCGGAUACCAGCUUCGCCAGAGGCCCUUGGCAGCCGGGCGGCUCAGUGAUGUUGGGUUGCU [Same State Theophylline A GF 15] | 536 nM | 559 nM | 876 nM | 920 nM | 664 nM
CAGUUCCGUAGUGAUGUUACGAUCUCUGAUACCAGACAACUCUAAGUCCCUUGGCAGCAGUCAUUUUGCUUAAUAUUUACUCAAA [#08 K4 Theophylline A Exclusion] | 126 nM | 139 nM | 136 nM | 170 nM | 116 nM
CAUACGCAUGGAGGAUAUGAGAAUUCUCAUGUCAUUUAAUAUUCUCAGUGAUGUUGAGGAUGUGGCUCAGAAGGCCAUGUGUAUG [Ex FMN B 21] | 205 nM | 325 nM | 423 nM | 366 nM | 379 nM
CAUUCUAUAUGCAGUGAUGUUGCAACUGAUACCAGUAUCGAAAGAUACCCUUGGCAGCGGAAAACCGCUACGUAAUUUAAGAAUG [Ex Theophylline A K4 22] | 375 nM | 445 nM | 489 nM | 523 nM | 327 nM
CCACAAUAUGGAAGGAGCGCCAGUGAUGUUGGUGCUUGCUUUAGGUAAGACCGGCCUAUUUGGCAGGUAGGUCGCCAUAUUCAAC [Ageat] | 103 nM | 89.5 nM | 97.7 nM | 89 nM | 97.2 nM
CCAGAAUGAUGAGGAUGAUAAAUUACUGAAGGAGCGCAUAUAGUUGCAGGUAGGUCGCGGUGAAUAAGUAUAGUGAUGUUAUACC [SSArgA.Ab] | 595 nM | 327 nM | 314 nM | 322 nM | 341 nM
CCAGGAUGAUGAGGAUGAUAAAUUACUGAAGGAGCGCAUAUAGUUGCAGGUAGGUCGCGGUGAAUAAGUAUAGUGAUGUUAUACC [SSArgA.Aa] | 379 nM | 263 nM | 309 nM | 360 nM | 301 nM
CCCGCGGCGGGAAACCGUCGCGGGAAGGAAGGAGCGGCGAAGAAGCCAGGUAGGUCGCCUAUUGACAGUGAUGUUGUUAUAUAGA [#11] | 226 nM | 263 nM | 160 nM | 292 nM | 179 nM
CCCGUUGCGGCGGCCGCCACUGACUUAUUGAUUAGGUUGCCAGUGAUGUUGGCCACCGGUCAAUACAGGACCGGGCCAUAGCGGG [Ceisreatte] | 157 nM | 124 nM | 128 nM | 134 nM | 99.1 nM
CCCUAUAUAUGCAGUGAUGUUGCAACUGAUACCAGUAUCGAAAGAUACCCUUGGCAGCGGAAAACCGCUACGUAAUUUAAUAGGG [Ex Theophylline A K4 21] | 384 nM | 422 nM | 419 nM | 461 nM | 265 nM
CCGGCCCAGCCGGAUACCAGUGCGCCGCAGGGAACGGCGGGCCCAGAGUGAUGUUCGGGACACCCUUGGCAGCCGCCUGGGUCGC [#2 Same State - Theophylline B Attempt #27 (HarryS)] | 234 nM | 197 nM | 309 nM | 314 nM | 297 nM
CCGGGCGGCUGAAGGAGCGGGCGGGCCCGAGUGAUGUUCGGGUGGGCCGUGAGGCCCGGAGCCCAGGUAGGUCGCGGUUCCGUCC [#2 Same State - Arginine B Attempt #18 (HarryS)] | 201 nM | 139 nM | 167 nM | 196 nM | 140 nM
CCUCACGUAGGACUAGUGAUGUUAGACUACCGAGGACCGGUACGGCCGCCACUCGUCGUACAAGAUAACCAUCUGCCAGUAUACA | 122 nM | 103 nM | 117 nM | 107 nM | 168 nM
CCUUUAGGCUCGGCCGCCACUCCAGUGAUGUUGGAGGUGCGUACAGAGCUAGAAAGCGUUAUCAGGAGGACCGGGAGUUUUAACG [Leorte] | 98.3 nM | 107 nM | 103 nM | 101 nM | 110 nM

Sequence | apparent KD of K4 kissing-loop reporter (input ligand: FMN 200 uM) | apparent KD of K4 kissing-loop reporter (input ligand: arginine 13.2 mM) | apparent KD of K4 kissing-loop reporter (input ligand: none) | apparent KD of K4 kissing-loop reporter [1] | apparent KD of K4 kissing-loop reporter [2]
CGACUAGUCUUGCAACCCUAGUCGAUAUGCUAGGAUAUCAGGAAACUGAGAAGGAGUUUACUUGCAGUGAUGUUGCAAGAAUAAU [KL-SSFMN-A10] | 135 nM | 153 nM | 133 nM | 172 nM | 129 nM
CGAGCUUCCUGGGAUACCAGUCGGAGUCUCAGAGCUCGGAGUGAUGUUCUGGGAUGUUUCGGCCCUUGGCAGCUCUGGGACUCCU [#2 Exclusion - Theophylline B Attempt #20 (HarryS)] | 1000 nM | 576 nM | 767 nM | 883 nM | 797 nM
CGAGUCCUGAGGAGUGAUGUUCCUCGGCCACGAGGACCGGUACGGCCGCCACUCGUUACUCGGGCUUAGUGGCUAGCACUAAGCU [Tirete] | 200 nM | 249 nM | 203 nM | 238 nM | 118 nM
CGAUACGGAAAUACGUGUCUCUAUUCAGAAGGAGCGUGGUAGUACACAGGUAGGUCGCUGAAUUUUAAACUAGUGAUGUUAGUCU [JR_SSArginiA_Sub005] | 317 nM | 281 nM | 331 nM | 292 nM | 259 nM
CGAUAGGGAAGUCGAUUGCUCACUGGUAAACGAGGACCGGUACGGCCGCCACUCGGGUCCAGUGAUGUUGGACUUUGUGGCGGGC [Edladian] | 117 nM | 99.5 nM | 104 nM | 99.5 nM | 109 nM
CGCAAGCAGCCAGUGAUGUUGGCCGCCUUGCGAGGACCGGUACGGCCGCCACUCGAAGGCGGCUACUAGUAAACCGCCUAACGGA [KL-XTryp-A17] | 105 nM | 91.1 nM | 95.6 nM | 81.2 nM | 184 nM
CGCAAUAUUACGGAGUGAUGUUUCGUAGUCCGAGGACCGGUACGGCCGCCACUCGCUGGCGUUGGCCCAUAGACCGACGGAAUCG [theeternabot_sameState_KL_Trp_A_39] | 246 nM | 252 nM | 257 nM | 236 nM | 238 nM
CGCAGGAUGGAAGGAUAUGGGAGUUGACGUCGCCGAGCUAACCUUCUGCACGGAGUGAUGUUUAGACCAGAAGGUCCUCGGAGCA [theeternabot_exclusion_KL_FMN_B_17] | 1210 nM | 997 nM | 1610 nM | 1150 nM | 1180 nM
CGCAGUGAUGUUGCGAGUAGCUACAGGGAAGGAGCGUGCUAGAGCACAGGUAGGUCGCCCACGCAGUGAUGUUGUGUUAAAGGGU [Exclusion Arginine A GF 12] | 141 nM | 116 nM | 123 nM | 149 nM | 117 nM
CGCCAGUGAUGUUGGUGCAGCUACCGGGAAGGAGCGCCCAUAAGGGCAGGUAGGUCGCCCGGGCAGUGAUGUUGCCUCAUGCCGC [Exclusion Arginine A GF 22] | 243 nM | 236 nM | 273 nM | 234 nM | 238 nM
CGCCGCAAGGCGAGCGCUCCCACUCCGGAAGGAGCGCCCGGAAGGGCAGGUAGGUCGCCGGAGUGAUGUUCCGGUGGAGGGCUCG [#2 Exclusion - Arginine A Attempt #13 (Inspired by Omei)] | 358 nM | 248 nM | 334 nM | 491 nM | 416 nM
CGCCGCAAGGCGGGCCGGCCCACUCCGGAAGGAGCGCCCGCAAGGGCAGGUAGGUCGCCGGAGUGAUGUUCCGGUGGCCGGCCCG [#2 Exclusion - Arginine A Attempt #3 (Inspired by Omei)] | 433 nM | 244 nM | 376 nM | 592 nM | 354 nM
CGCCGUAAGGCGGUCGCUCCCACUCCGGAAGGAGCGCCCGGAAGGGCAGGUAGGUCGCCGGAGUGAUGUUCCGGUGGAGGGACCG [#2 Exclusion - Arginine A Attempt #9 (Inspired by Omei)] | 587 nM | 295 nM | 365 nM | 270 nM | 367 nM
CGCGCGCGCGCGCGCGCGCGCGCGCGAAGUGAGGAUAUUUAGGGAGAAAGAAGGCACUAUAAAAUAUAGUGAUGUUAUAUAAGGG [SSFMNA.B] | 920 nM | 499 nM | 720 nM | 203 nM | 496 nM
CGCGCGCGCUGAGAGGCGCGCGCGAAUGAUACCAGUAUAUAAGAAUACCCUUGGCAGCAUAAGAAAGAUAUAGUGAUGUUGUAUA [SSTheophA.D] | 75.3 nM | 199 nM | 43.1 nM | 201 nM | 29 nM
CGGAUCGCAUCAGGAUAUCUCUCAUCAGUGAUGUUGGUGAAGCGUACGCGAAAGCGUACGCAGAUGAGAGAAGGGAUGCGAUCCG | 467 nM | 763 nM | 1670 nM | 766 nM | 945 nM
CGGCCGUUAUGAGAUACCAGAGUGGCGACCAGUGAUGUUGGUCGACGCUUGCGGUCGUCUCUCCCUUGGCAGCUUAGUACGAAAG [Inisar] | 97.4 nM | 88.2 nM | 91.8 nM | 73.8 nM | 91.3 nM
CGGCGGAGUGAUGUUCCACCUACUGCGGAUACCAGCUUUGCCAGAGGCCCUUGGCAGCCGCACGGCUCAGUGAUGUUGGGUUGCG [Same State Theophylline A G12] | 237 nM | 162 nM | 227 nM | 219 nM | 195 nM
CGGCUCUAUCCUAGUAUUAAGAGGGAGUUGCGAGGACCGGUACGGCCGCCACUCGAAGUAGUUUGGCCAGUGAUGUUGGUCUUAC [Qubeatonza] | 223 nM | 213 nM | 129 nM | 152 nM | 421 nM
CGGGAUGUUAAAGGAUAUAGCAGGUGAUACAAGAAAGUGAGUGAUGUUUAUGUAGAUGAUGAUAUGUUAGAAGGUUAACAAAACG [abcdefghijkl] | 1040 nM | 726 nM | 908 nM | 686 nM | 581 nM
CGUAGCAGACGAAGGAGCGGCUACCUGAUUCAAGGUGAUGCUUGAGUGAUGUUCAGGUGUAGCCAGGUAGGUCGCGUCUGCUACG [Arg B Ex t9] | 201 nM | 144 nM | 164 nM | 180 nM | 170 nM
